Patent US20140341917A1 (Merck KGaA, published 2014)
Numbering of substitutions follows the chain as printed. Numbers in names are those of the source. One block for each binder: values may come before it.

Assays:
human PD-L1 [1] = target: T1, human PD-L1 (human, UniProt Q9NZQ7 19-238, limits assumed); test: Biacore kinetic profile
T1 construct: Protein used in the Biacore assays of 3.1

human PD-L1 [2] = target: T1, human PD-L1; test: Biacore; relative to A09-188-1
mouse PD-L1 = target: T2, mouse PD-L1 (mouse, UniProt Q9EP73 19-238, limits assumed); test: ELISA, later Biacore and FACS on PD-L1 expressing cells (hit selection, IgG format)
T2 construct: Biacore protein

hu-PDL-2-huFc = target: T3, hu-PDL-2-huFc (human, UniProt Q9BQ51 20-219, limits assumed); test: Biacore
T3 construct: not shown: human Fc (huFc)
T3 sequence (looked up): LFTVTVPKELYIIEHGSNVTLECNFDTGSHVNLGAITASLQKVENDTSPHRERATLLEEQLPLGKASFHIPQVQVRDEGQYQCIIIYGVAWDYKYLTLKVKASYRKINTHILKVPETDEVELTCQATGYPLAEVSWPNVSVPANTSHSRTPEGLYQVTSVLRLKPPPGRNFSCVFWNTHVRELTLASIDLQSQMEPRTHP

hu-B7.1-huFc = target: T4, hu-B7.1-huFc (human, UniProt P33681 35-242, limits assumed); test: Biacore
T4 construct: not shown: human Fc (huFc)
T4 sequence (looked up): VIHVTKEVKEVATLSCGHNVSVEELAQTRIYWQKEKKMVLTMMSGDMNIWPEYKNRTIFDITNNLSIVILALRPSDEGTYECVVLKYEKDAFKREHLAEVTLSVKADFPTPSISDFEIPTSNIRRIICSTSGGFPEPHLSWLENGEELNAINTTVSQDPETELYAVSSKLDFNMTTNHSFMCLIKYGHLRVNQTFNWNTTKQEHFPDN

hu-B7.2-huFc = target: T5, hu-B7.2-huFc (human, UniProt P42081 26-245, limits assumed); test: Biacore
T5 construct: not shown: human Fc (huFc)
T5 sequence (looked up): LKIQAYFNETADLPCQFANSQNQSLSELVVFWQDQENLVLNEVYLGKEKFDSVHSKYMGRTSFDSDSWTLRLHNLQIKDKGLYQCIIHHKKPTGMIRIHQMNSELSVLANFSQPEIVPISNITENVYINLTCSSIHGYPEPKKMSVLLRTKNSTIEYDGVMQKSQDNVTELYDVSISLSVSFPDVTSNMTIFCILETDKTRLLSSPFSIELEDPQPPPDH

huB7-H2-huFc = target: T6, huB7-H2-huFc (human, UniProt O75144 19-258, limits assumed); test: Biacore
T6 construct: not shown: human Fc (huFc)
T6 sequence (looked up): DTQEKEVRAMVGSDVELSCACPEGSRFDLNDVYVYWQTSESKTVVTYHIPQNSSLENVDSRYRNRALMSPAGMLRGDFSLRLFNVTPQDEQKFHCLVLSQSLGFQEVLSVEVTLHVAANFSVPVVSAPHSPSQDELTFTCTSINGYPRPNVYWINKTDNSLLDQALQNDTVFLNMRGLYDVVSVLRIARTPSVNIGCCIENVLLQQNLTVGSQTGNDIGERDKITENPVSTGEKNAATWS

huB7-H3-huFc = target: T7, huB7-H3-huFc (human, UniProt Q5ZPR3-2 29-245, limits assumed); test: Biacore
T7 construct: not shown: human Fc (huFc)
T7 sequence (looked up): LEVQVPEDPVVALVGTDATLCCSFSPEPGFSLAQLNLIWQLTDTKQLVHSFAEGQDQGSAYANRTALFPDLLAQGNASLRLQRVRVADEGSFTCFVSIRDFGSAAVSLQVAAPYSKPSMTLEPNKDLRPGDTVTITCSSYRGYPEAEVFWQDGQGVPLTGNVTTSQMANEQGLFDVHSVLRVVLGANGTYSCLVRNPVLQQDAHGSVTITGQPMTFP

[3] = target: T8, cynomolgus monkey PD-L1 expressed on the HEK cell surface (cynomolgus monkey, UniProt G7PSE7 19-290); test: direct FACS binding, HEK cells expressing cynomolgus monkey PD-L1
T8 construct: The sentence prints only 'cynomolgus monkey expressed on the HEK cell surface'
T8 sequence (G7PSE7 entry or part of it limits assumed): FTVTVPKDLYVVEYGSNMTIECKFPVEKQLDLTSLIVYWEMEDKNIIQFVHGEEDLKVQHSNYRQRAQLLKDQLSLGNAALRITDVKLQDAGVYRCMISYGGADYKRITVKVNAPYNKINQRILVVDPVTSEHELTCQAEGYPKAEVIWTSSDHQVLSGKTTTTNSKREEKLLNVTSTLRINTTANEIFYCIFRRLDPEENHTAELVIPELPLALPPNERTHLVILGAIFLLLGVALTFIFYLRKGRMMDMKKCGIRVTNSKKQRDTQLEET

T1 sequence (Q9NZQ7 19-238 limits assumed): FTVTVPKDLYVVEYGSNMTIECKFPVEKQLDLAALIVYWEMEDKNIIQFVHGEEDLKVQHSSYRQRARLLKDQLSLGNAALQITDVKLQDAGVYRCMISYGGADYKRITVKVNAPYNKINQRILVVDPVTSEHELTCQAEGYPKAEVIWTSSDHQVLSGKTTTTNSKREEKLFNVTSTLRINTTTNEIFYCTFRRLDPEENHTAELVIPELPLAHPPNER
T2 sequence (Q9EP73 19-238 limits assumed): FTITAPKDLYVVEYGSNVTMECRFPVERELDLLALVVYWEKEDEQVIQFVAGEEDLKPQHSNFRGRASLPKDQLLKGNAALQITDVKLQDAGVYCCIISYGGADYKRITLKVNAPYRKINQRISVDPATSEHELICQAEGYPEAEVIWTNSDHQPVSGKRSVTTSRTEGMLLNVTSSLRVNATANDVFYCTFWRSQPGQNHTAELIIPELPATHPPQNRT

B1: A09-188-1 (antibody, human IgG1, lambda, V domains shown)
VH: EVQLLESGGGLVQPGGSLRLSCAASGFTFSMYMMMWVRQAPGKGLEWVSSIYPSGGITFYADSVKGRFTISRDNSKNTLYLQMNSLRAEDTAIYYCARIKLGTVTTVDYWGQGTLVTVSS
VL: QSALTQPASVSGSPGQSITISCTGTSSDVGAYNYVSWYQQHPGKAPKLMIYDVSNRPSGVSNRFSGSKSGNTASLTISGLQAEDEADYYCSSYTSSSTRVFGTGTKVTVLG
notes: Parent antibody, lambda light chain, expressed as IgG
Kd (human PD-L1 [1]): 5.29 nM | t½ (human PD-L1 [1]): 0.22 h | Relative KD (human PD-L1 [2]): 1 | binding result (mouse PD-L1): binds

B4: A09-216-1 (antibody, human IgG1, lambda, V domains shown)
VH: B1 VH with M31I, M33L, S63T, I93V
VL: B1 VL
notes: 193V read as I93V; also called VH-M31I, M33L, S63T, 193V
Kd (human PD-L1 [1]): 0.91 nM | t½ (human PD-L1 [1]): 1.3 h | Relative KD (human PD-L1 [2]): 0.17

B6: A09-215-1 (antibody, human IgG1, lambda, V domains shown)
VH: B1 VH with M33L, M35F, S63T, I93V
VL: B1 VL
notes: 193V read as I93V; also called VH-M33L, M35F, S63T, 193V
Kd (human PD-L1 [1]): 1.28 nM | t½ (human PD-L1 [1]): 0.843 h | Relative KD (human PD-L1 [2]): 0.24

B7: A09-202-1 (antibody, human IgG1, lambda, V domains shown)
VH: B1 VH
VL: B1 VL with A31G
notes: also called VL-A31G
Kd (human PD-L1 [1]): 4.15 nM | t½ (human PD-L1 [1]): 0.313 h | Relative KD (human PD-L1 [2]): 0.78

B8: A09-212-1 (antibody, human IgG1, lambda, V domains shown)
VH: B1 VH with M33I, M35F, S63T, I93V
VL: B1 VL
notes: 193V read as I93V; also called VH-M33I, M35F, S63T, 193V
t½ (human PD-L1 [1]): 4.24 h

B14: A09-214-1 (antibody, human IgG1, lambda, V domains shown)
VH: B1 VH with M31I, M33I, S63T, I93V
VL: B1 VL
notes: 193V read as I93V; also called VH-M31I, M33I, S63T, 193V
Kd (human PD-L1 [1]): 0.4 nM | t½ (human PD-L1 [1]): 2.98 h | Relative KD (human PD-L1 [2]): 0.08

B15: A09-211-1 (antibody, human IgG1, lambda, V domains shown)
VH: B1 VH with M31I, M33L, M35F, S63T, I93V
VL: B1 VL
notes: 193V read as I93V; also called VH-M31I, M33L, M35F, S63T, 193V
t½ (human PD-L1 [1]): 1.82 h

B17: A09-219-1 (antibody, human IgG1, lambda, V domains shown)
VH: B1 VH with M31S, M33I, M35F, S63T, I93V
VL: B1 VL
notes: also called VH-M31S, M33I, M35F, S63T, I93V
Kd (human PD-L1 [1]): 0.18 nM | t½ (human PD-L1 [1]): 4.64 h | Relative KD (human PD-L1 [2]): 0.03

B18: A09-213-1 (antibody, human IgG1, lambda, V domains shown)
VH: B1 VH with M31I, M35F, S63T, I93V
VL: B1 VL
notes: 193V read as I93V; also called VH-M31I, M35F, S63T, 193V
Kd (human PD-L1 [1]): 2.51 nM | t½ (human PD-L1 [1]): 0.462 h | Relative KD (human PD-L1 [2]): 0.47

B22: A09-204-1 (antibody, human IgG1, lambda, V domains shown)
VH: B1 VH with M31I, M33I, M35F, S63T, I93V
VL: B1 VL
notes: positions counted from the N-terminus of the chain; also called VH-M31I, M33I, M35F, S63T, I93V
Kd (human PD-L1 [1]): 0.1 nM | t½ (human PD-L1 [1]): 9.64 h | Relative KD (human PD-L1 [2]): 0.02

Continued, values first:

Kd (human PD-L1 [1]): 3.62 nM | t½ (human PD-L1 [1]): 0.225 h | Relative KD (human PD-L1 [2]): 0.68
B2: A09-223-1 (antibody, human IgG1, lambda, V domains shown)
VH: B1 VH with M31S, M35F, S63T, I93V
VL: B1 VL
notes: also called VH-M31S, M35F, S63T, I93V

Kd (human PD-L1 [1]): 0.1 nM | t½ (human PD-L1 [1]): 7.27 h | Relative KD (human PD-L1 [2]): 0.02
B3: A09-248-2 (antibody, human IgG1, lambda, V domains shown)
VH: B1 VH with M31I, M33I, M35F, S63T, I93V
VL: B1 VL with A31G
notes: also called VL-A31G; VH-M31I, M33I, M35F, S63T, I93V

Kd (human PD-L1 [1]): 0.16 nM | t½ (human PD-L1 [1]): 4.1 h | Relative KD (human PD-L1 [2]): 0.03
B5: A09-240-2 (antibody, human IgG1, lambda, V domains shown)
VH: B1 VH with M33I, M35F, S63T, I93V
VL: B1 VL with A31G
notes: also called VL-A31G; VH-M33I, M35F, S63T, I93V

Kd (human PD-L1 [1]): 0.32 nM | t½ (human PD-L1 [1]): 2.77 h | Relative KD (human PD-L1 [2]): 0.07
B9: A09-241-2 (antibody, human IgG1, lambda, V domains shown)
VH: B1 VH with M31I, M33I, S63T, I93V
VL: B1 VL with A31G
notes: also called VL-A31G; VH-M31I, M33I, S63T, I93V

t½ (human PD-L1 [1]): 1.14 h
B10: A09-220-1 (antibody, human IgG1, lambda, V domains shown)
VH: B1 VH with M31S, M33L, M35F, S63T, I93V
VL: B1 VL
notes: also called VH-M31S, M33L, M35F, S63T, I93V

t½ (human PD-L1 [1]): 1.29 h
B11: A09-245-2 (antibody, human IgG1, lambda, V domains shown)
VH: B1 VH with M31S, M33L, M35F, S63T, I93V
VL: B1 VL with A31G
notes: also called VL-A31G; VH-M31S, M33L, M35F, S63T, I93V

Kd (human PD-L1 [1]): 0.76 nM | t½ (human PD-L1 [1]): 0.963 h | Relative KD (human PD-L1 [2]): 0.16
B12: A09-247-2 (antibody, human IgG1, lambda, V domains shown)
VH: B1 VH with M31S, M33L, S63T, I93V
VL: B1 VL with A31G
notes: also called VL-A31G; VH-M31S, M33L, S63T, I93V

t½ (human PD-L1 [1]): 2 h
B13: A09-239-2 (antibody, human IgG1, lambda, V domains shown)
VH: B1 VH with M31I, M33L, M35F, S63T, I93V
VL: B1 VL with A31G
notes: also called VL-A31G; VH-M31I, M33L, M35F, S63T, I93V

Kd (human PD-L1 [1]): 0.12 nM | t½ (human PD-L1 [1]): 4.66 h | Relative KD (human PD-L1 [2]): 0.03
B16: A09-244-2 (antibody, human IgG1, lambda, V domains shown)
VH: B1 VH with M31S, M33I, M35F, S63T, I93V
VL: B1 VL with A31G
notes: also called VL-A31G; VH-M31S, M33I, M35F, S63T, I93V

Kd (human PD-L1 [1]): 1.24 nM | t½ (human PD-L1 [1]): 0.785 h | Relative KD (human PD-L1 [2]): 0.23
B19: A09-222-1 (antibody, human IgG1, lambda, V domains shown)
VH: B1 VH with M31S, M33L, S63T, I93V
VL: B1 VL
notes: also called VH-M31S, M33L, S63T, I93V

binding result (hu-PDL-2-huFc): no binding | binding result (hu-B7.1-huFc): no binding | binding result (hu-B7.2-huFc): no binding | binding result (huB7-H2-huFc): no binding | binding result (huB7-H3-huFc): no binding | EC50 [3]: 0.94 nM
B20: A09-246-2 (antibody, human IgG1, lambda, V domains shown)
VH: B1 VH with M31S, M33I, S63T, I93V
VL: B1 VL with A31G
notes: lambda light chain

t½ (human PD-L1 [1]): 1.42 h
B21: A09-243-2 (antibody, human IgG1, lambda, V domains shown)
VH: B1 VH with M31I, M33L, S63T, I93V
VL: B1 VL with A31G
notes: also called VL-A31G; VH-M31I, M33L, S63T, I93V

Kd (human PD-L1 [1]): 0.76 nM | t½ (human PD-L1 [1]): 0.927 h | Relative KD (human PD-L1 [2]): 0.16
B23: A09-242-2 (antibody, human IgG1, lambda, V domains shown)
VH: B1 VH with M33L, M35F, S63T, I93V
VL: B1 VL with A31G
notes: also called VL-A31G; VH-M33L, M35F, S63T, I93V
